From patent publication US20240398804A1 (Dana-Farber, published 2024) come the findings set out here.

For experiment [1], the target named is SRC (endogenous, colon cancer cell lines) (UniProt P12931 2-536). Nature of the experiment: YAP1 immunoprecipitation from colon cancer cell lysate (SW480), immunoblot. As to the method: (§1) The indicated colon cancer cell lines were infected with shRNAs targeting YES1 and proliferation (A) or anchorage independent growth (B) was assessed. The results were normalized to cells infected with a control shRNA targeting LacZ. (C) Subcutaneous HCT116 tumors expressing a doxycycline inducible YES1 shRNA were implanted into the cecum of nude mice and after 48 h were treated or not with doxycycline. Tumors were extracted three weeks post doxycycline treatment. (D) YES1 protein levels of tumors in (C). (E) YAP1 was immunoprecipitated from SW480 lystaes and following immunobloting the membrane was stained with the indicated antibodies. […] Following V5 IP the membrane was blotted with a phosphotyrosine antibody. […] (H) Proliferation or anchorage independent growth (I) of Hutu80 cell lines expressing YAP1 Y357F and infected with shRNAs targeting YAP1. (J) YAP1 protein levels of cells in (H) and (I).
In general terms: In western blotting, separated proteins are transferred to a membrane and probed.

The target of the next experiment is FYN (UniProt P06241 2-537, limits assumed). Described as above. As to the method: as §1
Chain of FYN (P06241 2-537 limits assumed): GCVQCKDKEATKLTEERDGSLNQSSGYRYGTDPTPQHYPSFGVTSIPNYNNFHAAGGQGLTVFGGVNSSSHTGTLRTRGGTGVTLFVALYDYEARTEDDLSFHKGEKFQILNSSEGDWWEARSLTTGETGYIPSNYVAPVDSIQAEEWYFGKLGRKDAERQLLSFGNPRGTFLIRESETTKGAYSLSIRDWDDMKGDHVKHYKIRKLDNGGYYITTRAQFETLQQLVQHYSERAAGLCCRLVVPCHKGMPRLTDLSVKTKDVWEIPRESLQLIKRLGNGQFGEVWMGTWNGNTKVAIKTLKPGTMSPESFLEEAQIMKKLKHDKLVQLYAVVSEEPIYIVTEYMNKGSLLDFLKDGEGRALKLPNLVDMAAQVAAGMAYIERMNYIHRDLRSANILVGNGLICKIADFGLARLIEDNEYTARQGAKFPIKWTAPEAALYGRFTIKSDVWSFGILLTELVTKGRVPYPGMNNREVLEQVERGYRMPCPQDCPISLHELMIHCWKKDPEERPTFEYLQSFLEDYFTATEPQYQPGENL

B1: YAP1 (65 kd Yes-associated protein) (other, UniProt P46937-3 1-454, looked up)
chain: MDPGQQPPPQPAPQGQGQPPSQPPQGQGPPSGPGQPAPAATQAAPQAPPAGHQIVHVRGDSETDLEALFNAVMNPKTANVPQTVPMRLRKLPDSFFKPPEPKSHSRQASTDAGTAGALTPQHVRAHSSPASLQLGAVSPGTLTPTGVVSGPAATPTAQHLRQSSFEIPDDVPLPAGWEMAKTSSGQRYFLNHIDQTTTWQDPRKAMLSQMNVTAPTSPPVQQNMMNSASAMNQRISQSAPVKQPPPLAPQSPQGGVMGGSNSNQQQQMRLQQLQMEKERLRLKQQELLRQVRPQELALRSQLPTLEQDGGTQNPVSSPGMSQELRTMTTNSSDPFLNSGTYHSRDESTDSGLSMSSYSVPRTPDDFLNSVDEMDTGDTINQSTLPSQQNRFPDYLEAIPGTNVDLGTLEGDGMNIEGEELMPSLQEALSSDILNDMESVLAATKLDKESFLTWL
notes: Endogenous protein in the co-immunoprecipitations from colon cancer cell lysates; also called WT YAP1
Consider B1, for which the binding result (in experiment [1]; in the experiment with FYN) was “no binding” in each case.
